Measurements as given in PMC5416850 (Nucleic Acids Research, 2017).

Tests used:
SAXS = target: the molecule itself; experiment: SAXS
[1] = target: T1, Vibrio cholerae HigB2 toxin (Vibrio cholerae, UniProt Q9KMA6); experiment: ITC
T1 sequence: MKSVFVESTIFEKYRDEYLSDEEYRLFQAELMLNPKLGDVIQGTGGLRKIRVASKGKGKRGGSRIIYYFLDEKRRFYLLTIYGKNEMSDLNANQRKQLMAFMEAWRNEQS

[2] = target: Vibrio cholerae HigB2 toxin (Vibrio cholerae, UniProt Q9KMA6); experiment: crystal structure
crystal structure = target: the molecule itself; experiment: crystal structure

B1: Vibrio cholerae HigA2 antitoxin, full length (natural protein)
chain: MSNRDLFAELSSALVEAKQHSEGKLTLKTHHVNDVGELNISPDEIVSIREQFNMSRGVFARLLHTSSRTLENWEQGRSVPNGQAVTLLKLVQRHPETLSHIAEL
Q: Which results are given for B1?
A: stoichiometry N (SAXS): 2; dH [1]: -26.6 ± 0.9 kcal/mol

B2: nanobody Nb2 (VHH)
VHH: QVQLQESGGGLVQPGGSLRLSCAASGFTLDYYAIGWFRQAPGKEREGVSCISSSGGTTNYADSVKGRFTVSRDNAKNTVYLQMNSLKPEDTAVYYCVADFACPLIREYDYWGQGTQVTVSS
Q: Does B2 bind [2]?
A: binds

Q: Does NRDLFAELSSALVEAKQHSEW [VcHigA2_(3-22) peptide] bind [1]?
A: binds

B3: nanobody Nb6 (VHH)
VHH: QVQLQESGGGLVQPGGSLRLSCAASGFTFSNYAMRWYRQAPGEEREFVAFISSVGGSTNYADSVKGRFTISRDNGKNTLYLQMNSLKPEDTAVYFCVARLSLISDSWGQGTQVTVSS
Q: Does B3 bind [2]?
A: binds

B4: C-terminal domain of VcHigA2 (residues 38-104) (domain or fragment)
chain: LNISPDEIVSIREQFNMSRGVFARLLHTSSRTLENWEQGRSVPNGQAVTLLKLVQRHPETLSHIAEL
Q: Does B4 bind (crystal structure)?
A: binds
